# T1: AXL ECD-hFc-ST3 (human, UniProt P30530 26-451)
# T1 construct: AXL (tyrosine-protein kinase receptor UFO), human, extracellular domain; Dimeric ECD-hFc-ST3 fusion behind the influenza HA signal peptide; prey on SC3-mi3 nanoparticles, bait on SC3 beads; source: Expi293, transfected, purified from supernatant (Ni-NTA / HisTrapFF); not shown: Fc (human IgG1, DAPA mutations), C-terminal, kept; FLAG, C-terminal, kept; SpyTag003, C-terminal, kept
# T1 sequence (looked up): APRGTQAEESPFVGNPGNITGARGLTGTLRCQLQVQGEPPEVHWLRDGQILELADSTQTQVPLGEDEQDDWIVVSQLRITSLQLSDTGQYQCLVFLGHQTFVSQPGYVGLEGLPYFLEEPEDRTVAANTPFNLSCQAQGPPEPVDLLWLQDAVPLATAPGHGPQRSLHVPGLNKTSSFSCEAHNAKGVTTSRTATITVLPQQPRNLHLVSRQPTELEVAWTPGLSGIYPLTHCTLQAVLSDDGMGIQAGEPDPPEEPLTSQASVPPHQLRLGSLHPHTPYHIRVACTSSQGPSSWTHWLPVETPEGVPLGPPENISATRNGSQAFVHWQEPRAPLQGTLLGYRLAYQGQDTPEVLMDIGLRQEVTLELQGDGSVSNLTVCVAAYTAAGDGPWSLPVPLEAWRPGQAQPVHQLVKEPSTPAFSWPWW
# T2: IL6R ECD-hFc-ST3 (human, UniProt P08887 20-365)
# T2 construct: IL6R (interleukin-6 receptor subunit alpha), human, extracellular domain; Dimeric ECD-hFc-ST3 fusion behind the influenza HA signal peptide; prey on SC3-mi3 nanoparticles, bait on SC3 beads; source: Expi293, transfected, purified from supernatant (Ni-NTA / HisTrapFF); not shown: Fc (human IgG1, DAPA mutations), C-terminal, kept; FLAG, C-terminal, kept; SpyTag003, C-terminal, kept
# T2 sequence (looked up): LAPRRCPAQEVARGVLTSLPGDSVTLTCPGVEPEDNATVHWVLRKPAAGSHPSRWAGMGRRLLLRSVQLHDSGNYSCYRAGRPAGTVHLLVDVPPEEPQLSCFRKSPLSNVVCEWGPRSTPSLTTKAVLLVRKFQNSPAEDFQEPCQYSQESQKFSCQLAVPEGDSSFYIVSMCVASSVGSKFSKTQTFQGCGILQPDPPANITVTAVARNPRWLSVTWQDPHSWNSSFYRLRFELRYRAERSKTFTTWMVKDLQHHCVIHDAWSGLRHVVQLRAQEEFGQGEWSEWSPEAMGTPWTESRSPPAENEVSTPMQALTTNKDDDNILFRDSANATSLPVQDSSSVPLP
# T3: IGFBPL1-hFc-ST3 (human, UniProt Q8WX77 26-278)
# T3 construct: Dimeric hFc-ST3 fusion behind the influenza HA signal peptide; prey on SC3-mi3 nanoparticles, bait on SC3 beads; source: Expi293, transfected, purified from supernatant (Ni-NTA / HisTrapFF); not shown: Fc (human IgG1, DAPA mutations), C-terminal, kept; FLAG, C-terminal, kept; SpyTag003, C-terminal, kept
# T3 sequence (looked up): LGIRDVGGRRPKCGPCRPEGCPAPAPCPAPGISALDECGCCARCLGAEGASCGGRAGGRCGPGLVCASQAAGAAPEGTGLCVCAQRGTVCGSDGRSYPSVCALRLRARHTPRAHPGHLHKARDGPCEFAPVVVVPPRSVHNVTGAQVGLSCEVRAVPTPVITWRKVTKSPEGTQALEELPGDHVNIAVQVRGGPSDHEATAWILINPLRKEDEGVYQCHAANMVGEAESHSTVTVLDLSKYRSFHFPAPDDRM
# Legend:
# Assay in all cases: Multiplex Interactome Assay (MPIA; bead-based, Luminex FLEXMAP 3D); runs D1-D4; baits ECD-hFc-ST3 on dimeric SC3 (SpyCatcher003-Cys) MagPlex beads, pooled; one prey a well: ECD-hFc-ST3 on 60-mer SC3-mi3 nanoparticles with GFP-V5-HA-ST3 adapter, 300 nM ECD where possible; 2 h at room temperature, 1% casein in 1x PBS; mouse anti-V5 and PE goat anti-mouse; read-out MFI; hit = seen in three of four runs
# WFIKKN2-hFc-ST3 (human) = WFIKKN2-hFc-ST3 (human) (UniProt Q8TEU8)
# PVR ECD-hFc-ST3 (human) = PVR ECD-hFc-ST3 (human) (UniProt P15151)
# [1] = target: PuncE11 ECD-hFc-ST3 (human) (UniProt Q8TDY8)
# AXL ECD-hFc-ST3 = target: T1, AXL ECD-hFc-ST3; details: both partners purified
# IL6R ECD-hFc-ST3 = target: T2, IL6R ECD-hFc-ST3; details: both partners purified
# IGFBPL1-hFc-ST3 = target: T3, IGFBPL1-hFc-ST3; details: both partners purified
# PVR ECD-hFc-ST3 (human), sequence (P15151 21-343): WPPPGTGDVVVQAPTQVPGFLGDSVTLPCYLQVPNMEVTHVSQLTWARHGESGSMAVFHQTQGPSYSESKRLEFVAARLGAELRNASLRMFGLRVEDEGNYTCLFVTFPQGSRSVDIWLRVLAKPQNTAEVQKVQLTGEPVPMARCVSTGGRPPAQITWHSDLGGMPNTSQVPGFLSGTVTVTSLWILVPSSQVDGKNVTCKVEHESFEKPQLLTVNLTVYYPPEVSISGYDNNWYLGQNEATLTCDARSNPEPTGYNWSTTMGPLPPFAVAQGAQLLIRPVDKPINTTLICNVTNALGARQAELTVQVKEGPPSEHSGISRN
molecule,measurement,setting,value
PuncE11 ECD-hFc-ST3 (from UniProt Q8TDY8 25-957) (Fc fusion),MFI,WFIKKN2-hFc-ST3 (human),> 7000
KIR2DL5 ECD-hFc-ST3 (from UniProt Q8N109 22-238) (Fc fusion),MFI,PVR ECD-hFc-ST3 (human),5360
WFIKKN2-hFc-ST3 (Fc fusion) LPPIRYSHAGICPNDMNPNLWVDAQSTCRRECETDQECETYEKCCPNVCGTKSCVAARYMDVKGKKGPVGMPKEATCDHFMCLQQGSECDIWDGQPVCKCKDRCEKEPSFTCASDGLTYYNRCYMDAEACSKGITLAVVTCRYHFTWPNTSPPPPETTMHPTTASPETPELDMAAPALLNNPVHQSVTMGETVSFLCDVVGRPRPEITWEKQLEDRENVVMRPNHVRGNVVVTNIAQLVIYNAQLQDAGIYTCTARNVAGVLRADFPLSVVRGHQAAATSESSPNGTAFPAAECLKPPDSEDCGEEQTRWHFDAQANNCLTFTFGHCHRNLNHFETYEACMLACMSGPLAACSLPALQGPCKAYAPRWAYNSQTGQCQSFVYGGCEGNGNNFESREACEESCPFPRGNQRCRACKPRQKLVTSFCRSDFVILGRVSELTEEPDSGRALVTVDEVLKDEKMGLKFLGQEPLEVTLLHVDWACPCPNVTVSEMPLIIMGEVDGGMAMLRPDSFVGASSARRVRKLREVMHKKTCDVLKEFLGLH,MFI,[1],> 7000
"ILRL1 ECD-hFc-ST3 (Fc fusion, human, UniProt Q01638 19-328, looked up, The label ILRL1 is printed once only; Dimeric ECD-hFc-ST3 fusion behind the influenza HA signal peptide; prey on SC3-mi3 nanoparticles, bait on SC3 beads; source: Expi293, transfected, purified from supernatant (Ni-NTA / HisTrapFF); not shown: Fc (human IgG1, DAPA mutations), C-terminal, kept; FLAG, C-terminal, kept; SpyTag003, C-terminal, kept) KFSKQSWGLENEALIVRCPRQGKPSYTVDWYYSQTNKSIPTQERNRVFASGQLLKFLPAAVADSGIYTCIVRSPTFNRTGYANVTIYKKQSDCNVPDYLMYSTVSGSEKNSKIYCPTIDLYNWTAPLEWFKNCQALQGSRYRAHKSFLVIDNVMTEDAGDYTCKFIHNENGANYSVTATRSFTVKDEQGFSLFPVIGAPAQNEIKEVEIGKNANLTCSACFGKGTQFLAAVLWQLNGTKITDFGEPRIQQEEGQNQSFSNGLACLDMVLRIADVKEEDLLLQYDCLALNLHGLRRHTVRLSRKNPIDHHS",MFI,AXL ECD-hFc-ST3,5780
"TIGIT ECD-hFc-ST3 (Fc fusion, human, UniProt Q495A1 22-141, looked up, TIGIT, human, extracellular domain; Dimeric ECD-hFc-ST3 fusion behind the influenza HA signal peptide; prey on SC3-mi3 nanoparticles, bait on SC3 beads; source: Expi293, transfected, purified from supernatant (Ni-NTA / HisTrapFF); not shown: Fc (human IgG1, DAPA mutations), C-terminal, kept; FLAG, C-terminal, kept; SpyTag003, C-terminal, kept) MMTGTIETTGNISAEKGGSIILQCHLSSTTAQVTQVNWEQQDQLLAICNADLGWHISPSFKDRVAPGPGLGLTLQSLTVNDTGEYFCIYHTYPDGTYTGRIFLEVLESSVAEHGARFQIP",binding result,IL6R ECD-hFc-ST3,binds
"DCC ECD-hFc-ST3 (Fc fusion, human, UniProt P43146 26-1097, looked up, DCC (netrin receptor DCC), human, extracellular domain; Dimeric ECD-hFc-ST3 fusion behind the influenza HA signal peptide; prey on SC3-mi3 nanoparticles, bait on SC3 beads; source: Expi293, transfected, purified from supernatant (Ni-NTA / HisTrapFF); not shown: Fc (human IgG1, DAPA mutations), C-terminal, kept; FLAG, C-terminal, kept; SpyTag003, C-terminal, kept) HLQVTGFQIKAFTALRFLSEPSDAVTMRGGNVLLDCSAESDRGVPVIKWKKDGIHLALGMDERKQQLSNGSLLIQNILHSRHHKPDEGLYQCEASLGDSGSIISRTAKVAVAGPLRFLSQTESVTAFMGDTVLLKCEVIGEPMPTIHWQKNQQDLTPIPGDSRVVVLPSGALQISRLQPGDIGIYRCSARNPASSRTGNEAEVRILSDPGLHRQLYFLQRPSNVVAIEGKDAVLECCVSGYPPPSFTWLRGEEVIQLRSKKYSLLGGSNLLISNVTDDDSGMYTCVVTYKNENISASAELTVLVPPWFLNHPSNLYAYESMDIEFECTVSGKPVPTVNWMKNGDVVIPSDYFQIVGGSNLRILGVVKSDEGFYQCVAENEAGNAQTSAQLIVPKPAIPSSSVLPSAPRDVVPVLVSSRFVRLSWRPPAEAKGNIQTFTVFFSREGDNRERALNTTQPGSLQLTVGNLKPEAMYTFRVVAYNEWGPGESSQPIKVATQPELQVPGPVENLQAVSTSPTSILITWEPPAYANGPVQGYRLFCTEVSTGKEQNIEVDGLSYKLEGLKKFTEYSLRFLAYNRYGPGVSTDDITVVTLSDVPSAPPQNVSLEVVNSRSIKVSWLPPPSGTQNGFITGYKIRHRKTTRRGEMETLEPNNLWYLFTGLEKGSQYSFQVSAMTVNGTGPPSNWYTAETPENDLDESQVPDQPSSLHVRPQTNCIIMSWTPPLNPNIVVRGYIIGYGVGSPYAETVRVDSKQRYYSIERLESSSHYVISLKAFNNAGEGVPLYESATTRSITDPTDPVDYYPLLDDFPTSVPDLSTPMLPPVGVQAVALTHDAVRVSWADNSVPKNQKTSEVRLYTVRWRTSFSASAKYKSEDTTSLSYTATGLKPNTMYEFSVMVTKNRRSSTWSMTAHATTYEAAPTSAPKDLTVITREGKPRAVIVSWQPPLEANGKITAYILFYTLDKNIPIDDWIMETISGDRLTHQIMDLNLDTMYYFRIQARNSKGVGPLSDPILFRTLKVEHPDKMANDQGRHGDGGYWPVDTNLIDRSTLNEPPIGQMHPPHGSVTPQKNSN",MFI,IGFBPL1-hFc-ST3,> 7000

# — paper doi:10.1101/2025.07.09.663943, “A multiplex extracellular interactome screening method employing high-avidity nanoparticles” (bioRxiv, 2025)
